Assay results from patent publication US20020168706A1.

Target: purified RecBCD protein (Plasmid-Safe ExoV, Epicentre) (E. coli) (UniProt P08394)
Test: cell-based or functional assay

Sequence of UniProt P08394 (P08394 2-1180 limits assumed, chain 1 of 3): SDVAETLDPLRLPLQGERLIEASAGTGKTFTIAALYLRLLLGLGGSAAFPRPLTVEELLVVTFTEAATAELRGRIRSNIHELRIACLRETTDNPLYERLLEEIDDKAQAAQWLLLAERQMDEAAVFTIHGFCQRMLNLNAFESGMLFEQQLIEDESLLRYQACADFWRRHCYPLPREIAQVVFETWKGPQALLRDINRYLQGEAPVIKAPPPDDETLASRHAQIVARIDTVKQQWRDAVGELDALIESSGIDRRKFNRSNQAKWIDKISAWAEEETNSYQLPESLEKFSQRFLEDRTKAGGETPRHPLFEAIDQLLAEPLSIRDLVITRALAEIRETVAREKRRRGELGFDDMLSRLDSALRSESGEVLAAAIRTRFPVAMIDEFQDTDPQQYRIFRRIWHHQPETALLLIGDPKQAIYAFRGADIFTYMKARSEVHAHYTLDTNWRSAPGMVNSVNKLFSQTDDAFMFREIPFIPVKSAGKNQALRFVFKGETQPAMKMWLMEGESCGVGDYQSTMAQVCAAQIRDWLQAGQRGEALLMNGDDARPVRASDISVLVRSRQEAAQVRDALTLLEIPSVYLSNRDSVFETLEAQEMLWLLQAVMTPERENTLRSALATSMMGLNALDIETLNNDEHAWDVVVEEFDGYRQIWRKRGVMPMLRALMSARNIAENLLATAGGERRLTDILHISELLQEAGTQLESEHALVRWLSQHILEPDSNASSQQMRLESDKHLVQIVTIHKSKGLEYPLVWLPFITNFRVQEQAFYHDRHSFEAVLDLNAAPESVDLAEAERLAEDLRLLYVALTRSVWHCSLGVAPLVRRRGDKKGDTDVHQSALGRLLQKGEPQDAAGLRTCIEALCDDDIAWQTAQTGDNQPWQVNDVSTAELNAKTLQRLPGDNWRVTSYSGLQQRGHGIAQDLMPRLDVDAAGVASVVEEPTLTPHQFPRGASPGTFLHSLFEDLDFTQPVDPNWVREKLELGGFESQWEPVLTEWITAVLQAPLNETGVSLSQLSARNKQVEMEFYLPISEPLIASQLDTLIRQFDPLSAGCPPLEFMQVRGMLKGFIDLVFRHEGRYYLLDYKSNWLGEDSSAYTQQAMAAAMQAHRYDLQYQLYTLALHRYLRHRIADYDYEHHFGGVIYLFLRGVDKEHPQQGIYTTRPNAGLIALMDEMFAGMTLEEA
Sequence of UniProt P08394 (P07648 whole entry, chain 2 of 3, further chain): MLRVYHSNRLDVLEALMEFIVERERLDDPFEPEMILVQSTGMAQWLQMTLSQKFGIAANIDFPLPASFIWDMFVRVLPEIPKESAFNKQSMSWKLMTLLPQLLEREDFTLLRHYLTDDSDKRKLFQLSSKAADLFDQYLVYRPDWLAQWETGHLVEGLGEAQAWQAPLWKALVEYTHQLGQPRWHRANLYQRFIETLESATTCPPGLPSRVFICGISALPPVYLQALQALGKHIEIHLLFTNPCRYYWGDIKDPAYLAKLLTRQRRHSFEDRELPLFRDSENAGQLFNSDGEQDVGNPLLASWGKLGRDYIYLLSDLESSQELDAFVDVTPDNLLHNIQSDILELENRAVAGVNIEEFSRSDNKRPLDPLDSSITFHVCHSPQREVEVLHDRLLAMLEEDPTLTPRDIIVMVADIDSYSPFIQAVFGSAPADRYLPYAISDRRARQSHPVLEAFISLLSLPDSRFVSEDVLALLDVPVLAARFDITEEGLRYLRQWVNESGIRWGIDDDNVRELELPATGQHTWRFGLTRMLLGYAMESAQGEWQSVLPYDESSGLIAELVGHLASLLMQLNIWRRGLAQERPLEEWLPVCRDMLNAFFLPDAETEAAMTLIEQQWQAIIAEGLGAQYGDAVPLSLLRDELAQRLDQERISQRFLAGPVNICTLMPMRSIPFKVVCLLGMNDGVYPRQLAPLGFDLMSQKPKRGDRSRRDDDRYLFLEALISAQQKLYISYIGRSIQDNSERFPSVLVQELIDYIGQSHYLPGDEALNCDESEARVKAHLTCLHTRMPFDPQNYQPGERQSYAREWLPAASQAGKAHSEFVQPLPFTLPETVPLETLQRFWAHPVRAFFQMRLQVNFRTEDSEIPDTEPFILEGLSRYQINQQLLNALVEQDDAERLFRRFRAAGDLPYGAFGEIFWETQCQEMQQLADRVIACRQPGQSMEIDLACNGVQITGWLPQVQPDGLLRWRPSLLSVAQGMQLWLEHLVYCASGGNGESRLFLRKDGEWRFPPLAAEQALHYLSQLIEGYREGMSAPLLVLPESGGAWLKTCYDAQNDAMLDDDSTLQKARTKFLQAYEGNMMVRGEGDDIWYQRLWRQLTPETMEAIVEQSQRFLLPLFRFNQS
Sequence of UniProt P08394 (P04993 whole entry, chain 3 of 3, further chain): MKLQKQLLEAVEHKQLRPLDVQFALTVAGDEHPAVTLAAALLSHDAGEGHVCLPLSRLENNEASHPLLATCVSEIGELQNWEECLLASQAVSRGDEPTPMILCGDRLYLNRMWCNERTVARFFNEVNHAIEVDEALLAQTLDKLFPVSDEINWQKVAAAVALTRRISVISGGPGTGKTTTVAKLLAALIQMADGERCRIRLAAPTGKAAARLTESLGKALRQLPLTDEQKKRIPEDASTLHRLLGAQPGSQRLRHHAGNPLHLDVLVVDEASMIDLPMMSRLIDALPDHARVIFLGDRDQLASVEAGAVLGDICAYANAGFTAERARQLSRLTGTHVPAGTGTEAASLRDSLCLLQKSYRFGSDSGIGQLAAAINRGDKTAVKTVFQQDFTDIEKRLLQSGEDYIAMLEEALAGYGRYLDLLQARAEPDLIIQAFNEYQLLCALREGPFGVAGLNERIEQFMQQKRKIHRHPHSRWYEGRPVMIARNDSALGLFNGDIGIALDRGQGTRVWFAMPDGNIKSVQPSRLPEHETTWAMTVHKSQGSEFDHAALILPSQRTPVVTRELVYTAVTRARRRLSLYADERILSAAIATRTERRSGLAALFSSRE

“GamS (short form of the bacteriophage lambda Gam protein, expressed from pLDE136, partially purified MonoQ pool) (from UniProt P03702 1-98)” showed a specific activity of GamS in the Gam-mediated RecBCD inhibition assay of 160 to 200 U/µg.
